# According to the supplement of paper PMC9112550, “Optimization of the antimicrobial peptide Bac7 by deep mutational scanning” (BMC Biology, 2022):
# System: Escherichia coli TOP10
# Test: shrunken log2 fold change of peptide-encoding DNA abundance (4.5 h post-induction vs induction); higher = less antimicrobial activity (less host growth inhibition)
# Conditions: time post-induction: 4.5 h; library: site-saturation at positions 5, 18, 19, 20
# 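Further: peptides expressed intracellularly from a pBAD plasmid library in pooled LB shake-flask culture, induced with 0.3% L-arabinose, DNA abundance read by NGS, three biological replicates, DESeq2 with apeglm shrinkage.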
row,Sequence,shrunken log2 fold change
1,RRIRERPPRLPRPRPRPDTGPRP,-0.161
2,RRIRSRPPRLPRPRPRPPRPPRP,0.684
3,RRIRSRPPRLPRPRPRPHWRPRP,0.39
4,RRIRCRPPRLPRPRPRPTTYPRP,-0.781
5,RRIRHRPPRLPRPRPRPWQLPRP,-0.016
6,RRIRVRPPRLPRPRPRPDDKPRP,-0.446
7,RRIRVRPPRLPRPRPRPEISPRP,-0.122
8,RRIRDRPPRLPRPRPRPRRNPRP,0.225
9,RRIRARPPRLPRPRPRPGTMPRP,0.351
10,RRIRVRPPRLPRPRPRPLSIPRP,-0.233
11,RRIRGRPPRLPRPRPRPSDPPRP,0.261
12,RRIRARPPRLPRPRPRPIELPRP,0.00186
13,RRIRHRPPRLPRPRPRPHVSPRP,-0.0122
14,RRIRIRPPRLPRPRPRPYDSPRP,-0.423
15,RRIRGRPPRLPRPRPRPPKYPRP,0.0508
16,RRIRDRPPRLPRPRPRPTNLPRP,-0.182
17,RRIRWRPPRLPRPRPRPVCEPRP,0.825
18,RRIRTRPPRLPRPRPRPVQHPRP,-0.217
19,RRIRYRPPRLPRPRPRPWFAPRP,-0.497
20,RRIRYRPPRLPRPRPRPNACPRP,-0.047
21,RRIRKRPPRLPRPRPRPTAHPRP,0.513
22,RRIRRRPPRLPRPRPRPSHAPRP,0.232
23,RRIRLRPPRLPRPRPRPGPQPRP,0.228
24,RRIRKRPPRLPRPRPRPNECPRP,0.157
25,RRIRVRPPRLPRPRPRPWVFPRP,0.284

row,Sequence,shrunken log2 fold change
1,RRIRGRPPRLPRPRPRPGQWPRP,0.356
2,RRIRTRPPRLPRPRPRPICDPRP,-0.168
3,RRIRARPPRLPRPRPRPFVFPRP,0.166
4,RRIRHRPPRLPRPRPRPCVIPRP,-0.0839
5,RRIRIRPPRLPRPRPRPTCPPRP,0.00857
6,RRIRQRPPRLPRPRPRPEFSPRP,0.362
7,RRIRVRPPRLPRPRPRPKHEPRP,-0.0072
8,RRIRPRPPRLPRPRPRPYLIPRP,-0.445
9,RRIRVRPPRLPRPRPRPDNHPRP,0.0415
10,RRIRMRPPRLPRPRPRPLMSPRP,0.00915
11,RRIRERPPRLPRPRPRPVNFPRP,-0.0265
12,RRIRRRPPRLPRPRPRPLFSPRP,-0.0439
13,RRIRVRPPRLPRPRPRPMRRPRP,0.392
14,RRIRPRPPRLPRPRPRPAGCPRP,0.386
15,RRIRGRPPRLPRPRPRPGALPRP,0.723
16,RRIRGRPPRLPRPRPRPNKWPRP,0.0346
17,RRIRIRPPRLPRPRPRPAWCPRP,-0.0802
18,RRIRTRPPRLPRPRPRPSWCPRP,-0.322
19,RRIRIRPPRLPRPRPRPSYCPRP,-0.408
20,RRIRTRPPRLPRPRPRPPHRPRP,-0.0645
21,RRIRKRPPRLPRPRPRPCHNPRP,-0.111
22,RRIRYRPPRLPRPRPRPRISPRP,-0.218
23,RRIRQRPPRLPRPRPRPDVEPRP,-0.0335
24,RRIRSRPPRLPRPRPRPWLFPRP,-0.183
25,RRIRCRPPRLPRPRPRPDCWPRP,0.23

row,Sequence,shrunken log2 fold change
1,RRIRIRPPRLPRPRPRPQLWPRP,0.575
2,RRIRARPPRLPRPRPRPCRNPRP,-0.38
3,RRIRNRPPRLPRPRPRPWFCPRP,-0.861
4,RRIRHRPPRLPRPRPRPVWRPRP,0.0724
5,RRIRWRPPRLPRPRPRPYGVPRP,0.00576
6,RRIRARPPRLPRPRPRPLDYPRP,-0.25
7,RRIRLRPPRLPRPRPRPVQDPRP,-0.105
8,RRIRFRPPRLPRPRPRPDHYPRP,-0.184
9,RRIRGRPPRLPRPRPRPYTMPRP,-0.342
10,RRIRIRPPRLPRPRPRPHVQPRP,-0.131
11,RRIRWRPPRLPRPRPRPFTVPRP,-0.512
12,RRIRMRPPRLPRPRPRPYNEPRP,-0.811
13,RRIRARPPRLPRPRPRPRRLPRP,0.537
14,RRIRHRPPRLPRPRPRPHSHPRP,-0.41
15,RRIRPRPPRLPRPRPRPIQDPRP,-0.239
16,RRIRDRPPRLPRPRPRPNSDPRP,-0.272
17,RRIRIRPPRLPRPRPRPGMAPRP,0.006
18,RRIRRRPPRLPRPRPRPSLKPRP,0.108
19,RRIRYRPPRLPRPRPRPRGYPRP,-0.365
20,RRIRRRPPRLPRPRPRPTYYPRP,-0.0395
21,RRIRMRPPRLPRPRPRPREFPRP,0.0273
22,RRIRNRPPRLPRPRPRPHIMPRP,-0.122
23,RRIRTRPPRLPRPRPRPQKIPRP,-0.123
24,RRIRHRPPRLPRPRPRPTTLPRP,-0.301
25,RRIRWRPPRLPRPRPRPCVNPRP,0.0912

row,Sequence,shrunken log2 fold change
1,RRIRFRPPRLPRPRPRPDYKPRP,-0.492
2,RRIRQRPPRLPRPRPRPVIRPRP,-0.406
3,RRIRNRPPRLPRPRPRPLPSPRP,1.86
4,RRIRARPPRLPRPRPRPYLCPRP,-0.291
5,RRIRCRPPRLPRPRPRPRSEPRP,0.325
6,RRIRVRPPRLPRPRPRPDGRPRP,0.149
7,RRIRGRPPRLPRPRPRPDLSPRP,0.121
8,RRIRWRPPRLPRPRPRPIKKPRP,-0.0218
9,RRIRFRPPRLPRPRPRPKGFPRP,0.21
10,RRIRQRPPRLPRPRPRPWSFPRP,-0.026
11,RRIRNRPPRLPRPRPRPSFPPRP,-0.19
12,RRIRARPPRLPRPRPRPPDTPRP,0.764
13,RRIRVRPPRLPRPRPRPKNPPRP,-0.17
14,RRIRLRPPRLPRPRPRPKCLPRP,0.117
15,RRIRDRPPRLPRPRPRPSLEPRP,0.245
16,RRIRIRPPRLPRPRPRPFGIPRP,-0.972
17,RRIRARPPRLPRPRPRPESHPRP,1.04
18,RRIRYRPPRLPRPRPRPRHAPRP,-0.0916
19,RRIRQRPPRLPRPRPRPEEGPRP,-0.0102
20,RRIRYRPPRLPRPRPRPTEVPRP,-0.016
21,RRIRIRPPRLPRPRPRPSFCPRP,-0.656
22,RRIRARPPRLPRPRPRPCWMPRP,-0.102
23,RRIRNRPPRLPRPRPRPLNAPRP,-0.662
24,RRIRIRPPRLPRPRPRPQPGPRP,0.116
25,RRIRCRPPRLPRPRPRPHNDPRP,-0.889

row,Sequence,shrunken log2 fold change
1,RRIRLRPPRLPRPRPRPGHQPRP,0.122
2,RRIRSRPPRLPRPRPRPSRMPRP,-0.205
3,RRIRWRPPRLPRPRPRPDRTPRP,0.179
4,RRIRNRPPRLPRPRPRPMKMPRP,0.064
5,RRIRNRPPRLPRPRPRPSMKPRP,-0.609
6,RRIRPRPPRLPRPRPRPEWEPRP,0.304
7,RRIRRRPPRLPRPRPRPWYAPRP,-0.0635
8,RRIRQRPPRLPRPRPRPHKGPRP,-0.214
9,RRIRGRPPRLPRPRPRPRDEPRP,0.293
10,RRIRDRPPRLPRPRPRPDWHPRP,0.0912
11,RRIRVRPPRLPRPRPRPCLGPRP,-0.069
12,RRIRARPPRLPRPRPRPCRHPRP,-0.355
13,RRIRTRPPRLPRPRPRPTKCPRP,-0.173
14,RRIRYRPPRLPRPRPRPPFHPRP,-0.589
15,RRIRPRPPRLPRPRPRPDCHPRP,-0.204
16,RRIRNRPPRLPRPRPRPFCHPRP,-0.476
17,RRIRRRPPRLPRPRPRPQERPRP,-0.0784
18,RRIRIRPPRLPRPRPRPSFMPRP,-0.871
19,RRIRDRPPRLPRPRPRPQNFPRP,-0.707
20,RRIRIRPPRLPRPRPRPTCAPRP,-0.166
21,RRIRQRPPRLPRPRPRPWAGPRP,0.0868
22,RRIRPRPPRLPRPRPRPLDMPRP,-0.142
23,RRIRPRPPRLPRPRPRPRINPRP,-0.16
24,RRIRIRPPRLPRPRPRPNSRPRP,-0.0636
25,RRIRSRPPRLPRPRPRPKNGPRP,-0.105

row,Sequence,shrunken log2 fold change
1,RRIRMRPPRLPRPRPRPSQHPRP,0.136
2,RRIRIRPPRLPRPRPRPSYPPRP,-0.56
3,RRIRRRPPRLPRPRPRPSISPRP,-0.774
4,RRIRPRPPRLPRPRPRPNSGPRP,0.0788
5,RRIRPRPPRLPRPRPRPEDEPRP,0.242
6,RRIRCRPPRLPRPRPRPMIPPRP,-0.231
7,RRIRWRPPRLPRPRPRPMDKPRP,-0.194
8,RRIRKRPPRLPRPRPRPEENPRP,-0.00213
9,RRIRWRPPRLPRPRPRPGCQPRP,-0.0225
10,RRIRQRPPRLPRPRPRPNLAPRP,0.281
11,RRIRIRPPRLPRPRPRPDYVPRP,0.012
12,RRIRHRPPRLPRPRPRPKYMPRP,-0.746
13,RRIRRRPPRLPRPRPRPIEEPRP,0.0745
14,RRIRLRPPRLPRPRPRPDDGPRP,-0.00277
15,RRIRMRPPRLPRPRPRPLDWPRP,0.474
16,RRIRLRPPRLPRPRPRPKEMPRP,0.0765
17,RRIRLRPPRLPRPRPRPIPAPRP,-0.112
18,RRIRWRPPRLPRPRPRPNKVPRP,-0.129
19,RRIRDRPPRLPRPRPRPNVWPRP,0.234
20,RRIRQRPPRLPRPRPRPFYVPRP,-0.484
21,RRIRFRPPRLPRPRPRPQMWPRP,-0.0128
22,RRIRVRPPRLPRPRPRPLTSPRP,0.0775
23,RRIRGRPPRLPRPRPRPCWWPRP,0.554
24,RRIRDRPPRLPRPRPRPFSTPRP,-0.0877
25,RRIRFRPPRLPRPRPRPHSAPRP,-0.179
